Experimental data reported in patent US20200277376A1 (SUZHOU STAINWEI BIOTECH, published 2020).

B1: human PDL2-Fc fusion protein (Fc fusion, UniProt Q9BQ51 20-219, looked up, not shown: a dimerising Fc or GST)
chain: LFTVTVPKELYIIEHGSNVTLECNFDTGSHVNLGAITASLQKVENDTSPHRERATLLEEQLPLGKASFHIPQVQVRDEGQYQCIIIYGVAWDYKYLTLKVKASYRKINTHILKVPETDEVELTCQATGYPLAEVSWPNVSVPANTSHSRTPEGLYQVTSVLRLKPPPGRNFSCVFWNTHVRELTLASIDLQSQMEPRTHP
notes: also called biotin-PDL2-Fc; Biotin-PDL2Fc

Tests used:
[1] = biological target: recombination human PD-1 extracellular protein (Sino Biological Inc.) (human) (UniProt Q15116); experiment: competitive ELISA, plate coated with human PD-1 protein; competitor biotin-hAb21
[2] = biological target: T1, human PD-1 on cells (CHO cells stably expressing human PD-1) (human, UniProt Q15116 25-288); experiment: flow cytometry on CHO/PD-1 cells
T1 construct: whole, on cells; also called CHO/PD-1; CHO-PD-1
T1 sequence (Q15116 25-288): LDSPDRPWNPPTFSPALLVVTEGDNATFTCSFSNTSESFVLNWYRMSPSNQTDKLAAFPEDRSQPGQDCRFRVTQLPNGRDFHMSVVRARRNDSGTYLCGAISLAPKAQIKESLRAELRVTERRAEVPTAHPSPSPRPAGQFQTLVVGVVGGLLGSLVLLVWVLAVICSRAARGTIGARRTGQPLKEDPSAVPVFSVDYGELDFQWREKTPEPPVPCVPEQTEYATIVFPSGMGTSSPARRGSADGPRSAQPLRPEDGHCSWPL

Sequence of recombination human PD-1 extracellular protein (Sino Biological Inc.) (human) (Q15116 25-170): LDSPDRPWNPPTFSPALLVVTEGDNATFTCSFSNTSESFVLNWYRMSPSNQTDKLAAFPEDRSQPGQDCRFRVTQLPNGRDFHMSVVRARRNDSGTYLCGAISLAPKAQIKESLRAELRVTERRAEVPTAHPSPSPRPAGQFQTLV

Row | Molecule | antagonizing/inhibiting ratio [1] | binding result [2]
1 | MK3475+Nivo (Nivolumab and MK3475 added together) | 70% | 
2 | B1 |  | binds
